Test results: article PMC9524465 (ACS catalysis, 2021)

Target: the molecule itself
Assay: crystal structure

B1: [3SCC-(I9H)3] artificial copper peptide (ArCuP), de novo designed trimeric coiled coil peptide (peptide)
chain: GIAAIKQEHAAIKQEIAAIKQEIAAIKWEG
modifications: not fully specified; acetylated N-terminal Gly (Ac-); amidated C-terminal Gly (-CONH2)
- stoichiometry N: 3
